Data as given in ChEMBL document CHEMBL3352481, “Synthesis of {[5-(adenin-9-yl)-2-furyl]methoxy}methyl phosphonic acid and evaluations against human adenylate kinases” (Bioorg Med Chem Lett, 2014).

Columns and labels:
Conditions in all cases: Homo sapiens; call rule not given here
[1] = tested on: Nc1ncnc2c1ncn2[C@H]1C[C@H](O)[C@@H](COP(=O)(O)O)O1; assay: (§1) Ratio of Kcat to Km for recombinant AK2 (unknown origin)
[2] = tested on: Nc1ncnc2c1ncn2-c1ccc(COCP(=O)(O)O)o1; assay: as §1
[3] = tested on: Nc1ncnc2c1ncn2-c1ccc(CO)o1; assay: as §1
[4] = tested on: C[C@H](Cn1cnc2c(N)ncnc21)OCP(=O)(O)O; assay: as §1
[5] = tested on: Nc1ncnc2c1ncn2[C@@H]1O[C@H](COP(=O)(O)O)[C@@H](O)[C@H]1O; assay: as §1
[6] = tested on: Nc1ncnc2c1ncn2CCOCP(=O)(O)O; assay: as §1
[7] = tested on: Nc1ncnc2c1ncn2[C@H]1C[C@H](O)[C@@H](COP(=O)(O)O)O1; assay: (§2) Activity of recombinant AK2 (unknown origin) assessed as ADP formation by spectroscopic pyruvate kinase/lactate dehydrogenase coupled assay
[8] = tested on: Nc1ncnc2c1ncn2-c1ccc(COCP(=O)(O)O)o1; assay: as §2
[9] = tested on: Nc1ncnc2c1ncn2-c1ccc(CO)o1; assay: as §2
[10] = tested on: C[C@H](Cn1cnc2c(N)ncnc21)OCP(=O)(O)O; assay: as §2
[11] = tested on: Nc1ncnc2c1ncn2[C@@H]1O[C@H](COP(=O)(O)O)[C@@H](O)[C@H]1O; assay: as §2
[12] = tested on: Nc1ncnc2c1ncn2CCOCP(=O)(O)O; assay: as §2

With “Adenylate kinase 2, mitochondrial (Homo sapiens) (from UniProt P54819)” the kcat/Km [1] was 0.5 ×10⁶ /M/s, the kcat/Km [2] was 0.025 ×10⁶ /M/s and the kcat/Km [3] was “Not Active”. The kcat/Km [4] was 800 M⁻¹ s⁻¹, the kcat/Km [5] was 0.21 ×10⁶ /M/s and the kcat/Km [6] was 250 ×10⁶ /M/s. It also gave a Km [7] of 210 µM, a kcat [7] of 110 s⁻¹ and a Km [8] of 420 µM. The kcat [8] was 1.06 s⁻¹, the Km [9] was “Not Active” and the kcat [9] was “Not Active”. For the same substance, the Km [10] was 3000 µM, the kcat [10] was 2.4 s⁻¹ and the Km [11] was 380 µM. It also gave a kcat [11] of 80 s⁻¹, a Km [12] of 6000 µM and a kcat [12] of 1.5 s⁻¹.
